# According to article PMC2931692:
# Molecular target: soluble HA of A/Aichi/2/68 (H3N2) modified at the C-terminus with the GCN4pII trimerization repeat (influenza A virus A/Aichi/2/68 (H3N2) | Saccharomyces cerevisiae) (UniProt P03437)
# Experiment: cross-linking
substance,measurement,value
soluble HA of A/Aichi/2/68 (H3N2) modified at the C-terminus with the GCN4pII trimerization repeat (from UniProt P03437 17-528),stoichiometry N,3
